The values that follow come from paper PMC9584410, “Structure of Klebsiella pneumoniae adenosine monophosphate nucleosidase” (PLoS ONE, 2022).

The target of series [1] is Klebsiella pneumoniae adenosine monophosphate nucleosidase (Klebsiella pneumoniae). As to the kind of experiment: cryo-EM structure; purified KpAmn vitrified on a C-flat grid (Vitrobot, 4°C, >90% humidity), Titan Krios 300 kV; apo; D3 symmetry confirmed by ab initio models and enforced in refinement.
Substrate in the series “purified protein”: Nc1ncnc2c1ncn2[C@@H]1O[C@H](COP(=O)(O)O)[C@@H](O)[C@H]1O
As to the kind of experiment: purified protein. Particulars: 25 °C, 20 mM HEPES pH 7.5, 100 mM NaCl, 1 mM MnCl2, no ATP activator listed. It is filed as biochemical, Klebsiella pneumoniae.

The term stoichiometry N denotes a count of units in the complex or per binding partner. Usually Km stands for the concentration of substrate that gives half-maximal velocity.

“Klebsiella pneumoniae adenosine monophosphate nucleosidase (enzyme)” yielded a stoichiometry N in series [1] of 6.

B1: KpAmn (K. pneumoniae adenosine monophosphate nucleosidase) (Klebsiella pneumoniae) (protein)
chain: MNIKAASLTPEQALAELEARYEASVTALRKAIGDYIDHNTLPDTEARAEGLFVYPQLSVSWDGADHKALKTRAWGRFTHAGCYTTTITNPKLFRNYLLEQLTLLYQDYGAHISVELSQHEIPYPYVIDGSTLTLDRSMSAGLTRYFPTTELSQIGDETADGLFHPTEFYPLSHFDARRVDFSLARLRHYTGTPAEHFQPYVLFTNYTRYVDEFVSWGCSQILDPDSPYIALSCAGGIWITAETEAPEQAISDLAWKKHQMPAWHLITHDGKGITLINIGVGPANAKTICDHLAVLRPDVWLMIGHCGGLRESQAIGDYVLAHAYLRDDHVLDAVLPPDIPIPSIAEVQRALYDATKQVSGMPGEEVKQRLRTGTVVTTDDRNWELRYSASALRFNLSRAVAIDMESATIAAQGYRFRVPYGTLLCVSDKPLHGEIKLPGQANRFYEGAISEHLQIGIRAIDLLRAEGDHMHSRKLRTFNEPPFR
notes: expressed in E. coli BL21(DE3) R3 Rosetta; homohexamer, D3 symmetry; active site from two chains
Take B1: the Km in “purified protein” amounted to 390 µM.
